Measurements taken from EP4663654A1 (Hangzhou Sciwind Biosciences Co., Ltd., dated 2025).
Starred links: 1 amine or outer side, 2 acyl side, 3 side chain; linkers in the order of their positions; H or OH if unused. Non-standard residues stand in square brackets, D forms with d. *: point of attachment. C20 diacid = O=C(O)CCCCCCCCCCCCCCCCCCC(=O)*; γGlu = O=C(O)[C@H](CCC(=O)[*:2])N[*:1]; Hyp = O=C(O)[C@@H]1C[C@@H](O)CN1

Molecular target: T1, human amylin receptor (AMY3) on CHO-K1/Ga15/AMY3 amylin receptor/CRE-luc cells (human, UniProt P30988 25-474; O60896 24-148)
T1 sequence (looked up) 1: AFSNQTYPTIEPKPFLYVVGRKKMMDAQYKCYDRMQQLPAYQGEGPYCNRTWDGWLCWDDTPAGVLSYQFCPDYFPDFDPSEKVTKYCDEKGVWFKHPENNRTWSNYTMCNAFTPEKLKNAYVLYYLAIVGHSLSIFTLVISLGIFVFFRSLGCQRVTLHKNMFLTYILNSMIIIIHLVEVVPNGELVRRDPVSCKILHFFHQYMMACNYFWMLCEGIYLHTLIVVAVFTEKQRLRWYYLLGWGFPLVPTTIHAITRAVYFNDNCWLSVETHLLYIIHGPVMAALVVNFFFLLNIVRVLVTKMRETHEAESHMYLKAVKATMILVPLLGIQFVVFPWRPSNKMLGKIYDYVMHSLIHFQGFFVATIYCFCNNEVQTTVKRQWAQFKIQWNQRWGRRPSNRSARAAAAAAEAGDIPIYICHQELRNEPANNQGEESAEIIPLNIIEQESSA
T1 sequence (looked up) 2: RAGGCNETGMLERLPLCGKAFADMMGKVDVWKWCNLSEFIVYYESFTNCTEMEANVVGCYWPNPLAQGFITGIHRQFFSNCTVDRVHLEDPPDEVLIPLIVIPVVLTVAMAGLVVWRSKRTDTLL
Test: cell-based or functional assay

B1: polypeptide derivative M52 (peptide)
peptide: {C20 diacid-γGlu}-ASQLSTAATQRLADFLRHSSHNLKPILPPTNVGSNT[Hyp]-NH2
SMILES: CC[C@H](C)[C@H](NC(=O)[C@@H]1CCCN1C(=O)[C@H](CCCCN)NC(=O)[C@H](CC(C)C)NC(=O)[C@H](CC(N)=O)NC(=O)[C@H](Cc1c[nH]cn1)NC(=O)[C@H](CO)NC(=O)[C@H](CO)NC(=O)[C@H](Cc1c[nH]cn1)NC(=O)[C@H](CCCNC(=N)N)NC(=O)[C@H](CC(C)C)NC(=O)[C@H](Cc1ccccc1)NC(=O)[C@H](CC(=O)O)NC(=O)[C@H](C)NC(=O)[C@H](CC(C)C)NC(=O)[C@H](CCCNC(=N)N)NC(=O)[C@H](CCC(N)=O)NC(=O)[C@@H](NC(=O)[C@H](C)NC(=O)[C@H](C)NC(=O)[C@@H](NC(=O)[C@H](CO)NC(=O)[C@H](CC(C)C)NC(=O)[C@H](CCC(N)=O)NC(=O)[C@H](CO)NC(=O)[C@H](C)NC(=O)CC[C@H](NC(=O)CCCCCCCCCCCCCCCCCCC(=O)O)C(=O)O)[C@@H](C)O)[C@@H](C)O)C(=O)N[C@@H](CC(C)C)C(=O)N1CCC[C@H]1C(=O)N1CCC[C@H]1C(=O)N[C@H](C(=O)N[C@@H](CC(N)=O)C(=O)N[C@H](C(=O)NCC(=O)N[C@@H](CO)C(=O)N[C@@H](CC(N)=O)C(=O)N[C@H](C(=O)N1C[C@H](O)C[C@H]1C(N)=O)[C@@H](C)O)C(C)C)[C@@H](C)O
  EC50/nM, CRE-luciferase reporter in amylin receptor/CRE-luc CHO cells: 0.09 nM
  Relative activity (the EC50 ratio of Cagrilintide to the compound): 178%
